Test results reported in patent US7064106B2, “Gene and use thereof” (Takeda Chemical Industries, Ltd., priority 1999, dated 2006).
Substitutions are numbered along the chain they refer to. Where no end group is shown, it is not given here.

What was measured:
[1] = molecular target: T1, binding of IRAP-His to GST-MD364N (UniProt P97629+Q9Y613); experiment: Binding inhibition test / screening of compounds that inhibit the binding of IRAP to human MD36
T1 construct: to construct plasmid pET21-IRAP (1–109); made in house; host or cells: E. coli (BL21 for GST-MD36N4)
T1 sequence (Q9Y613 951-1164): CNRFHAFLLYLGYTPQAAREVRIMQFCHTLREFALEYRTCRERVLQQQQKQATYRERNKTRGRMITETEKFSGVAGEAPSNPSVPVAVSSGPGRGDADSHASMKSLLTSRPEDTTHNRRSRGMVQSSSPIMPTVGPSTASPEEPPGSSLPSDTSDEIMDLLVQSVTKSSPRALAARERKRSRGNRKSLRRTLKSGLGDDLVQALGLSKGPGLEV
T1 sequence (P97629 1-109): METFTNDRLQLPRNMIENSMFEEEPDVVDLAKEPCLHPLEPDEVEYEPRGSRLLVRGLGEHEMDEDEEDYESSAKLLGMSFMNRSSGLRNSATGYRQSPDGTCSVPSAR
From the text: The C terminal part (partial peptide encoded by the partial base sequence of 2995–3674 from the 5′ end in SEQ ID NO:2) of SEQ ID NO:1 (full-length cDNA of MD36) was used as human MD36. This DNA fragment was inserted into pGEX expression vector (Amersham Pharmacia) to construct expression plasmid pGEX-MD36N4 capable of expressing the human MD36 partial protein in the form fused to GST (glutathione S-transferase) protein (GST-MD36N4 protein) under control of tac promoter. However, the protease recognition site in these junctions was removed by applying PCR. Using pGEX-MD36N4, E. coli BL21 was transformed and the transformants were cultured in LB medium in a conventional manner while inducing expression by IPTG. After culture, the cells collected were disrupted by sonication followed by centrifugation of the cell homogenate. As a result, most of the GST-MD36N4 protein were present in the insoluble fraction. […]
Protein-protein binding test was carried out by the procedure shown below. […] After the wells were again rinsed 3 times with TBS-T, the IRAP-His protein remained in the wells was quantitatively assayed using anti-Penta-His antibody (Qiagen, Inc.). […] IRAP-His (1.0 μg/ml) or anti-Penta-His antibody (diluted to 2000 fold) and both were added to the GST-MD364N-coated or uncoated wells, and after washing with TBS-T, the amount of His-Tag remained in the wells was quantified. […]

[2] = molecular target: T2, profilin IIL (Homo sapiens, UniProt P35080); experiment: Yeast two-hybrid HIS3 growth test, MD36 and profilin family; assay type: cell-based; conditions: S. cerevisiae Y190; 40 mM 3-amino-1,2,4-triazole
T2 construct: expressed in transfected cells; host or cells: Saccharomyces cerevisiae Y190
T2 sequence (P35080 1-140): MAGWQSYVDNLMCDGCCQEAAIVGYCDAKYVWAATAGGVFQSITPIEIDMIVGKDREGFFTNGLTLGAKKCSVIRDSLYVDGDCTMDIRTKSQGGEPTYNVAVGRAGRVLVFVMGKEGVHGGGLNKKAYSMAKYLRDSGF
Description: Using as a template human skeletal muscle-derived cDNA and as an enzyme Pfu polymerase (STRATAGENE), the reaction was carried out at 95° C. for 30 seconds, at 65° C. for 45 seconds and at 72° C. for 60 seconds, for 35 cycles. As a result of PCR, the DNA fragment of 745 bp was found, in addition to the DNA fragment of 423 bp or profilin II, and named profilin IIL. The base sequence for cDNA of profilin IIL is shown by SEQ ID NO:29, and the amino acid sequence of profilin II is shown by SEQ ID NO:28.
The protein-protein interaction between MD36 and the profilin family was detected by the yeast two-hybrid system. Based on pGBT9 (CLONTECH), expression plasmids were constructed to express the coding regions of profiling I (Evangelista et al., Science, 276, 118–122, 1997; Imamura et al., EMBO J., 16, 2745–2755, 1997; Tanaka, Biochem. Biophys. Res. Commun., 267, 479–481, 2000), profilin II (Schluter et al., Biohim. Biophys. Acta, 1359, 97–109, 1997), and profiling IIL in the form fused to yeast GAL4-DNA-binding domain protein under control of yeast ADH1 promoter. These plasmids were named pG-PFNI, pG-PFNII and pG-PFNIII, respectively (yeast selection marker was TRP1). […]

[3] = tested on: profilin I; experiment: as above; assay type: cell-based; conditions: S. cerevisiae Y190; 40 mM 3-amino-1,2,4-triazole
From the text: (§1) The protein-protein interaction between MD36 and the profilin family was detected by the yeast two-hybrid system. Based on pGBT9 (CLONTECH), expression plasmids were constructed to express the coding regions of profiling I (Evangelista et al., Science, 276, 118–122, 1997; Imamura et al., EMBO J., 16, 2745–2755, 1997; Tanaka, Biochem. Biophys. Res. Commun., 267, 479–481, 2000), profilin II (Schluter et al., Biohim. Biophys. Acta, 1359, 97–109, 1997), and profiling IIL in the form fused to yeast GAL4-DNA-binding domain protein under control of yeast ADH1 promoter. These plasmids were named pG-PFNI, pG-PFNII and pG-PFNIII, respectively (yeast selection marker was TRP1). On the other hand, expression plasmids that express the full-length sequence (SEQ ID NO:1) of MD36, which is IRAP-BP protein, or the coding region from this N-terminus to the sequence (SEQ ID NO:33) including the proline-rich domain in the form fused to yeast […] activated domain protein under control of yeast ADH1 promoter was constructed based on pACT2 (CLONTECH), and named pACT-MD36 and pACT-MD36NT, respectively (yeast selection marker was LEU2). pG-PFNI, pG-PFNII, pG-PFNIII or, pGBT9 for control was co-transfected to yeast Saccharomyces cerevisiae Y190 together with pACT-MD36 or pACT-MD36NT, and yeast strains bearing plasmids from the two were selected on SD medium free of tryptophan and leucine. S. cerevisiae Y190 is originally a histidine auxotrophic strain but when the introduced proteins on the plasmids show the interactions, reporter gene HIS3 is expressed and the strain becomes capable of growing on a histidine-free plate. The yeast strain acquired was spread on tryptophan, leucine and histidine-free SD medium supplemented with 40 mM 3-amino-1,2,4-triazole.

[4] = molecular target: T3, profilin II (Homo sapiens, UniProt P35080); experiment: as above; assay type: cell-based; conditions: S. cerevisiae Y190; 40 mM 3-amino-1,2,4-triazole
T3 construct: expressed in transfected cells; host or cells: Saccharomyces cerevisiae Y190
T3 sequence (P35080 1-140 isoform P35080-2): T2 sequence (P35080 1-140) with V109A, F112I, G123T, S130E, M131L, K133L, D137R, G139D, F140V
From the text: as §1

O=C(O)c1cc(O)c2c(c1)[C@@H]([C@H]1c3cc(C(=O)O)cc(O)c3C(=O)c3c(OC4OC(CO)C(O)C(O)C4O)cccc31)c1cccc(OC3OC(CO)C(O)C(O)C3O)c1C2=O (some centres unmarked) [Compound 1]
binding inhibition (reduced amount of His-Tag remained on the plate) ([1]; library compound in DMSO, final concentration 1 μM): exhibited binding inhibition

IRAP (55–82): chemically synthesized biotinylated peptide, amino acids 55–82 from the N terminus of SEQ ID NO:11 (IRAP) (VRGLGEHEMDEDEEDYESSAKLLGMSFM; also: biotinylated; listed as Homo sapiens) [reference compound]
inhibition of the binding of IRAP-His to GST-MD364N ([1]; biotinylated IRAP (55–82) peptide added, several amounts (μg/well)): inhibited

B1: MD36NT: MD36 from the N terminus to the sequence including the proline-rich domain (SEQ ID NO:33) (protein, listed as Homo sapiens)
chain: MAGGEDRGDGEPVSVVTVRVQYLEDTDPFACANFPEPRRAPTCSLDGALPLGAQIPAVHRLLGAPLKLEDCALQVSPSGYYLDTELSLEEQREMLEGFYEEISKGRKPTLILRTQLSVRVNAILEKLYSSSGPELRRSLFSLKQIFQEDKDLVPEFVHSEGLSCLIRVGAAADHNYQSYILRALGQLMLFVDGMLGVVAHSDTIQWLYTLCASLSRLVVKTALKLLLVFVEYSENNAPLFIRAVNSVASTTGAPPWANLVSILEEKNGADPELLVYTVTLINKTLAALPDQDSFYDVTDALEQQGMEALVQRHLGTAGTDVDLRTQLVLYENALKLEDGDIEEAPGAGGRRERRKPSSEEGKRSRRSLEGGGCPARAPEPGPTGPASPVGPTSSTGPALLTGPASSPVGPPSGLQASVNLFPTISVAPSADTSSERSIYKLHQTASVWAPESPPVPQSPPGQARLEARFLENVAAAETEKQVALAQGRAETLAGAMPNEAGGHPDARQLWDSPETAPAARTPQSPAPCVLLRAQRSLAPEPKEPLIPASPKAEPIWELPTRAPRLSIGDLDFSDLGEDEDQDMLNVESVEAGKDIPAPSPPLPLLSGVPPPPPLPPPPPIKGPFPPPPPLPLAAPLPHSVPDSSALPTKRKTVKLFWRELKLAGGH
growth of yeast on tryptophan, leucine and histidine-free SD medium [2]: Growth of the yeast was noted | growth of yeast on tryptophan, leucine and histidine-free SD medium [3]: did not grow | growth of yeast on tryptophan, leucine and histidine-free SD medium [4]: did not grow
